The record followed here is the supplement of paper PMC12764529.

± gives the half width of the 95% confidence interval.

A short description of data set [1]: folding stability dG unfold (combined trypsin and chymotrypsin); higher = more stable. In a few lines:
(§1)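 Designed mini-proteins (under 80 residues, no cysteine) in a PA-tagged cDNA display construct were digested with trypsin and chymotrypsin. Each protease was used at 11 concentrations (threefold dilutions) plus a no-protease condition, followed by sequencing. K50 was inferred by Bayesian fitting of sequencing counts, and unfolding free energy was derived against a sequence-predicted unfolded-state K50 and a shared folded-state K50, per protease or combined. Only designs with AlphaFold2 dimer inter-PAE above 15 were kept.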

Data set [2] is described as follows: folding stability dG unfold from chymotrypsin proteolysis; higher = more stable. The method, boiled down:
as §1

The nature of data set [3]: folding stability dG unfold from trypsin proteolysis; higher = more stable. In a few lines:
as §1

“SAGGSAGGSAGGEVIEIELPGKTKEEIEEAIKKLPENYKIEIKKDENGRIRVRIFRKEDLSAGGSAGGSAGG [r7_662_TrROS_Hall]”: the “folding stability dG unfold” value in data set [1] came to 1.44 ± 0.42 kcal/mol; in data set [2] it was 1.5 ± 0.17 kcal/mol; in data set [3], 1.6 ± 0.15 kcal/mol.

“SAGGSAGGSAGGFKLPPGKPIEFPIKHGGEPYPVEIWRDPNKLMIHFPGNNQWIPADDIKSAGGSAGGSAGG [r7_37_TrROS]”: the “folding stability dG unfold” value is -0.931 ± 0.58 kcal/mol in data set [1], -0.589 ± 0.87 kcal/mol in data set [2] and -0.828 ± 0.45 kcal/mol in data set [3].

In the case of “SAGGSAGGSAGGFNIEVVPGEPGWVIKIEFPDHPITAFVDPEDGKLWIYNPDNGMIFPLSAGGSAGGSAGGS [r10_434_TrROS]”, the “folding stability dG unfold” value in data set [1] amounted to 2.03 ± 0.077 kcal/mol; in data set [2] it was 1.78 ± 0.084 kcal/mol; in data set [3], 2.2 ± 0.042 kcal/mol.

Turning to “SAGGSAGGSAGGFTIKIETRPMPMFSKDGKPLAEMNMYRIKIEVPDMPPGLADKLIDLIQSAGGSAGGSAGG [r7_450_TrROS]”, the “folding stability dG unfold” value amounted to 2.67 ± 0.22 kcal/mol in data set [1], 2.67 ± 0.097 kcal/mol in data set [2] and 1.66 ± 0.11 kcal/mol in data set [3].

For the sequence “SAGGSAGGSAGGGIKIKIISVKPLPDGSVLVKAKIIFPDGKEKEILILFNKNGEIKIFEKSAGGSAGGSAGG [r7_860_TrMRF]”, the “folding stability dG unfold” value in data set [1] came to 3.71 ± 0.087 kcal/mol; in data set [2] it was 4.03 ± 0.069 kcal/mol; in data set [3] it was 3.04 ± 0.11 kcal/mol.

As to “SAGGSAGGSAGGGKKVKVIIAADKPEEAEKAIEKLEKETDLPLEDVIVIPREEAEKLGLASAGGSAGGSAGG [r7_84_TrMRF]”, the “folding stability dG unfold” value is -0.553 ± 0.47 kcal/mol in data set [1], -0.574 ± 0.14 kcal/mol in data set [2] and -1.27 ± 0.82 kcal/mol in data set [3].

Consider “SAGGSAGGSAGGGLRKITFETPLSDFEELVKALGLNVVSAEVEPGAGGLAKVTLLVEEGSAGGSAGGSAGGS [r10_999_TrMRF]”, for which the “folding stability dG unfold” value in data set [1] worked out at 1.55 ± 0.041 kcal/mol; in data set [2] it was 1.843 ± 0.016 kcal/mol; in data set [3], 1.04 ± 0.013 kcal/mol.

Take “SAGGSAGGSAGGGMAITTRPGSSEVSTTPVPSDVTASTTTPLASGEPVEVTYERVGDPTLSAGGSAGGSAGG [r7_21_JUSTAS]”: the “folding stability dG unfold” value in data set [1] was 0.0781 ± 0.079 kcal/mol; in data set [2] it was -0.525 ± 0.16 kcal/mol; in data set [3] it was 0.405 ± 0.022 kcal/mol.

As to “SAGGSAGGSAGGGMESKTTVTEEFSPEEVKTVTTVTTYPDGSVTETPENVKVPPGALAGSAGGSAGGSAGGS [r10_280_JUSTAS]”, the “folding stability dG unfold” value is 1.49 ± 0.11 kcal/mol in data set [1], 1.92 ± 0.13 kcal/mol in data set [2] and 0.1 ± 0.053 kcal/mol in data set [3].

Consider “SAGGSAGGSAGGGMSFKKRKGSISLTLRVTLTLPNGTPATLDIELELEEETVEPVYPELESAGGSAGGSAGG [r7_926_JUSTAS]”, for which the “folding stability dG unfold” value came out at 4.19 ± 0.24 kcal/mol in data set [1], 4.76 ± 0.14 kcal/mol in data set [2] and 2.87 ± 0.086 kcal/mol in data set [3].

For the sequence “SAGGSAGGSAGGGMSSAPPVTITPVSETTERLPNGTLVRTTTYAVDDGSTVTTTTVTPVSSAGGSAGGSAGG [r7_948_JUSTAS]”, the “folding stability dG unfold” value is 0.602 ± 0.1 kcal/mol in data set [1], 0.952 ± 0.069 kcal/mol in data set [2] and -0.127 ± 0.099 kcal/mol in data set [3].

With “SAGGSAGGSAGGGMSSVSLVKTSTITVGNGTVKLETLSYPDSSFVRTTLPNGKDVVEPLPSAGGSAGGSAGG [r7_655_JUSTAS]”, the “folding stability dG unfold” value in data set [1] was -0.089 ± 0.13 kcal/mol; in data set [2] it was 0.105 ± 0.1 kcal/mol; in data set [3], -0.561 ± 0.16 kcal/mol.

In the case of “SAGGSAGGSAGGGMSTAVLKIDDKWVPVRIYPDSVVIEYPDGSTKTISLSEIPENLIELPSAGGSAGGSAGG [r7_748_JUSTAS]”, the “folding stability dG unfold” value in data set [1] is 1.43 ± 0.15 kcal/mol; in data set [2], 0.547 ± 0.07 kcal/mol; in data set [3] it was 2.2 ± 0.12 kcal/mol.

Turning to “SAGGSAGGSAGGGMSVKVTVKDPVNGTTSVYELSVPPGVSNVVINVKTPDNSTVTKVTLESAGGSAGGSAGG [r7_687_JUSTAS]”, the “folding stability dG unfold” value in data set [1] came out at 1.11 ± 0.11 kcal/mol; in data set [2], 1.28 ± 0.034 kcal/mol; in data set [3], 0.754 ± 0.09 kcal/mol.

As to “SAGGSAGGSAGGGMTTTKTEVSFSPAGGLVTTKSTERLPGTGELKEVTSVTPLASSGTTSAGGSAGGSAGGS [r10_296_JUSTAS]”, the “folding stability dG unfold” value was determined as 0.622 ± 0.081 kcal/mol in data set [1], 0.846 ± 0.034 kcal/mol in data set [2] and 0.0156 ± 0.034 kcal/mol in data set [3].

For the sequence “SAGGSAGGSAGGGMTVEESVFLDPSGTRITVTTRVFDDGTVVTETEVTPLPPTPNPALASAGGSAGGSAGGS [r10_878_JUSTAS]”, the figures for the “folding stability dG unfold” value in data set [1], in data set [2] and in data set [3] were 1.11 ± 0.15 kcal/mol, 1.08 ± 0.066 kcal/mol and 1.2 ± 0.035 kcal/mol, respectively.

As for “SAGGSAGGSAGGGPDATPVTTTYVDLNLTPVSTETDPETGAVTVTYKLPGETITVTLPASAGGSAGGSAGGS [r10_962_JUSTAS]”, the “folding stability dG unfold” value in data set [1] was 0.573 ± 0.22 kcal/mol; in data set [2], 1.11 ± 0.42 kcal/mol; in data set [3] it was -0.629 ± 0.13 kcal/mol.

Take “SAGGSAGGSAGGGPEDRVVPLFFEFDLPEDVVLEVPSDADVFVFRLPDRTLMVLLVDERESAGGSAGGSAGG [r7_584_TrMRF]”: the figures for the “folding stability dG unfold” value in data set [1], in data set [2] and in data set [3] were 2.51 ± 0.057 kcal/mol, 2.88 ± 0.023 kcal/mol and 1.82 ± 0.051 kcal/mol, respectively.

Regarding “SAGGSAGGSAGGGPSSMVTVETKEELLTLPNGEKLIKTTTTTKTPTATTTTTTVLPAELLSAGGSAGGSAGG [r7_682_JUSTAS]”, the “folding stability dG unfold” value worked out at 0.515 ± 0.2 kcal/mol in data set [1], 0.561 ± 0.068 kcal/mol in data set [2] and 0.0664 ± 0.063 kcal/mol in data set [3].

For the sequence “SAGGSAGGSAGGGSMESVVLNVPIYEKTPDGSWRLVKELPILVPVDASPEVVEKKRKELSAGGSAGGSAGGS [r10_470_JUSTAS]”, the “folding stability dG unfold” value was -0.481 ± 0.17 kcal/mol in data set [1], -0.822 ± 0.68 kcal/mol in data set [2] and -0.41 ± 0.13 kcal/mol in data set [3].

On to “SAGGSAGGSAGGGSMVTVPVTTESTTTVPPGAPAVEAAPVDPATATVSTTTSSTSLVASSAGGSAGGSAGGS [r10_82_JUSTAS]”, for which the figures for the “folding stability dG unfold” value in data set [1], in data set [2] and in data set [3] were 0.862 ± 0.092 kcal/mol, 0.534 ± 0.029 kcal/mol and 1.22 ± 0.081 kcal/mol, respectively.

As for “SAGGSAGGSAGGGSPIPTTTLTTVTYGSSSSLLSSAKGPSSVPYSLPSSLGSSVSTTVVGSAGGSAGGSAGG [r7_141_JUSTAS]”, the “folding stability dG unfold” value is -0.34 ± 0.38 kcal/mol in data set [1], -0.13 ± 0.29 kcal/mol in data set [2] and -0.911 ± 0.3 kcal/mol in data set [3].

“SAGGSAGGSAGGGSSMITLERESEPGETFEFNFPGVSEVTVTEVIPGDGKVTVKVEVTSPSAGGSAGGSAGG [r7_292_JUSTAS]”: the “folding stability dG unfold” value in data set [1] was 0.537 ± 0.11 kcal/mol; in data set [2], 0.0882 ± 0.09 kcal/mol; in data set [3] it was 0.782 ± 0.059 kcal/mol.

For “SAGGSAGGSAGGGSSVITTTETDPANGLLTTTTTTINGSETVPSSTVSPVPPPPPPSTLSAGGSAGGSAGGS [r10_354_JUSTAS]”, the “folding stability dG unfold” value was determined as 1.11 ± 0.12 kcal/mol in data set [1], 0.0312 ± 0.094 kcal/mol in data set [2] and 1.67 ± 0.14 kcal/mol in data set [3].

With “SAGGSAGGSAGGGSVTIEIEFEAKPGEKFTVTIKGFKKVEITEIYPFDGKVRIKVKVTPESAGGSAGGSAGG [r7_292_TrMRF]”, the entries for the “folding stability dG unfold” value in data set [1], in data set [2] and in data set [3] were 3.67 ± 0.13 kcal/mol, 3.88 ± 0.13 kcal/mol and 3.18 ± 0.13 kcal/mol, respectively.

For the sequence “SAGGSAGGSAGGGVAFSSDTTETRIDTTDDDTIVITTTTYAPNPSSTTTTVTTVPPDVPLSAGGSAGGSAGG [r7_128_JUSTAS]”, the figures for the “folding stability dG unfold” value in data set [1], in data set [2] and in data set [3] were 0.75 ± 0.14 kcal/mol, 0.0059 ± 0.23 kcal/mol and 1.24 ± 0.044 kcal/mol, respectively.

With “SAGGSAGGSAGGGYIEIDSVHLHPDGTVTRTRAVLEVDENGNVRVLSAETETVPLDDILGSAGGSAGGSAGG [r7_521_TrMRF]”, the “folding stability dG unfold” value stood at 2.38 ± 0.12 kcal/mol in data set [1], 2.32 ± 0.043 kcal/mol in data set [2] and 2.28 ± 0.14 kcal/mol in data set [3].
